Experimental data as given in IntAct's records for PubMed 31663853.

B1: Protein phosphatase 1H (Homo sapiens), Q9ULR3 (parent)
chain: MLTRVKSAVANFMGGIMAGSSGSEHGGGSCGGSDLPLRFPYGRPEFLGLSQDEVECSADHIARPILILKETRRLPWATGYAEVINAGKSTHNEDQASCEVLTVKKKAGAVTSTPNRNSSKRRSSLPNGEGLQLKENSESEGVSCHYWSLFDGHAGSGAAVVASRLLQHHITEQLQDIVDILKNSAVLPPTCLGEEPENTPANSRTLTRAASLRGGVGAPGSPSTPPTRFFTEKKIPHECLVIGALESAFKEMDLQIERERSSYNISGGCTALIVICLLGKLYVANAGDSRAIIIRNGEIIPMSSEFTPETERQRLQYLAFMQPHLLGNEFTHLEFPRRVQRKELGKKMLYRDFNMTGWAYKTIEDEDLKFPLIYGEGKKARVMATIGVTRGLGDHDLKVHDSNIYIKPFLSSAPEVRIYDLSKYDHGSDDVLILATDGLWDVLSNEEVAEAITQFLPNCDPDDPHRYTLAAQDLVMRARGVLKDRGWRISNDRLGSGDDISVYVIPLIHGNKLS

Variants of: B1
Details: with rab10_human RAB10, P61026
Sequence of rab10_human RAB10, P61026 (P61026 whole entry): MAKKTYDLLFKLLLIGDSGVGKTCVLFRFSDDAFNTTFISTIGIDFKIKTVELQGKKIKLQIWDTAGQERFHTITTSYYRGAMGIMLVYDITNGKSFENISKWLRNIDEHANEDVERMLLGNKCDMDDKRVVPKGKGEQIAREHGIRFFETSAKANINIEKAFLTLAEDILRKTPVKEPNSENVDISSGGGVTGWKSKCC

Row | Variant | effect of a mutation on the interaction
1 | D288A | causing an interaction
2 | D288E | causing an interaction
